Results on five molecules are retold here after US20150274820A1 (ESBATECH AN ALCON BIOMEDICAL RESEARCH UNIT, published 2015).

One experiment deals with T1, recombinant human PLGF (human, UniProt P49763-2 19-149, limits assumed).
T1 construct: Negative control; also called PIGF
T1 sequence (looked up): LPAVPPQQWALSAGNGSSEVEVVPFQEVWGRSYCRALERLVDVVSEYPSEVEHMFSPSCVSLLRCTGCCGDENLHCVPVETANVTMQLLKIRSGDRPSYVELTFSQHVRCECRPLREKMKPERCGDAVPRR
In words: Biacore SPR, PlGF immobilized, pH 5. Here is the method:
(§1) In this example, the Biacore-binding ability of scFvs was tested and the binding affinity was measured using the exemplary surface plasmon resonance method with BIAcore™-T100. The VEGF proteins, tested for binding by these scFv candidates, in this example and later examples include purified Escherichia coli-expressed recombinant human VEGF₁₆₅ (PeproTech EC Ltd.), recombinant human VEGF₁₂₁ (PeproTech EC Ltd.), recombinant human VEGF₁₁₀ (ESBATech AG), recombinant murine VEGF₁₆₄ (PeproTech EC Ltd.), recombinant rat VEGF₁₆₄ (Biovision), recombinant rabbit VEGF₁₁₀ (ESBATech AG), and recombinant human PLGF (PeproTech EC Ltd.). For the surface plasmon resonance experiment, carboxymethylated dextran biosensor chips (CM4, GE Healthcare) were activated with N-ethyl-N′-(3-dimethylaminopropyl) carbodiimide hydrochloride and N-hydroxysuccinimide according to the supplier's instructions. Each of the 6 different VEGF forms, as exemplified above, was coupled to 1 of the 4 different flow cells on a CM4 sensor chip using a standard amine-coupling procedure. […] The 4th flow cell of each chip was treated similarly except no proteins were immobilized prior to blocking, and the flow cell was used as in-line reference. […] Dissociation of the anti-VEGF scFv from the VEGF on the CM4 chip was allowed to proceed for 10 min at 25° C. Sensorgrams were generated for each anti-VEGF scFv sample after in-line reference cell correction followed by buffer sample subtraction. The apparent dissociation rate constant (kd), the apparent association rate constant (kₐ) and the apparent dissociation equilibrium constant (KD) were calculated using one-to-one Langmuir binding model with BIAcore T100 evaluation Software version 1.1.

Experiment [1] concerns the target T2, recombinant human VEGF165 (human, UniProt P15692 27-191). In words: cell-based or functional assay.
The target in experiment [2] is T2, recombinant human VEGF165. In words: Biacore SPR, VEGF immobilized, pH 5. The method, then:
as §1
Target sequence in this assay (P15692 other isoform, or with tags, fused parts or gaps): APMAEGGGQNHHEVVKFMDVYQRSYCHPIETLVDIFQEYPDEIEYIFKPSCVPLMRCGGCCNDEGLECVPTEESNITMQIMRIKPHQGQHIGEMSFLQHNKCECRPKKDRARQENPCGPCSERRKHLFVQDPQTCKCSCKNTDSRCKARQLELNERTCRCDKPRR

Experiment [3] concerns the target T2, recombinant human VEGF165. In words: Biacore SPR, VEGF immobilized, pH 5. The method, then:
as §1, with “1.1. […]” for “1.1.”
Target sequence in this assay (P15692 other isoform, or with tags, fused parts or gaps): as above
The source holds these as a separate data set.

In experiment [4] the target is T2, recombinant human VEGF165. In words: cell-based or functional assay. This is another data set of the same source.
Target sequence in this assay (P15692 other isoform, or with tags, fused parts or gaps): as above
Experiment [5] has as its target T2, recombinant human VEGF165. In words: Biacore SPR, VEGF immobilized, pH 7.4. The method, then: as §1
Target sequence in this assay (P15692 other isoform, or with tags, fused parts or gaps): as above
Experiment [6] addresses T3, recombinant human VEGF110 (human, UniProt P15692-4 27-136, limits assumed).
T3 construct: Made in house; also called hVEGF110
T3 sequence (looked up): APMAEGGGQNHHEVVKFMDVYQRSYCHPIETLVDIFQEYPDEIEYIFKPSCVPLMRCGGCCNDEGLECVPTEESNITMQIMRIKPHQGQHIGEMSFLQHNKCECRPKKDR
In words: Biacore SPR, VEGF immobilized, pH 5. Here is the method: as §1

In experiment [7] the target is T2, recombinant human VEGF165. In words: Biacore SPR, VEGF immobilized, pH 5. Here is the method: as §1
Target sequence in this assay (P15692 other isoform, or with tags, fused parts or gaps): as the sequence (P15692 other isoform, or with tags, fused parts or gaps) above
This is another data set of the same source.

Experiment [8] deals with T4, recombinant human VEGF121 (human, UniProt P15692 27-147).
T4 construct: mature; Isoform VEGF121 of the entry; also called hVEGF121
T4 sequence (looked up): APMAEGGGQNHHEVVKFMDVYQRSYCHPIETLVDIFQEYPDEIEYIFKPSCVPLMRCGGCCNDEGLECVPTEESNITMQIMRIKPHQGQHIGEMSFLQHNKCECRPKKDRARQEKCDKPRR
In words: Biacore SPR, VEGF immobilized, pH 5. Here is the method:
as §1

Experiment [9] addresses T2, recombinant human VEGF165. In words: VEGFR1/Fc competition ELISA on coated hVEGF165; ratio to Lucentis. The method, then: After 30-60 min of incubation at room temperature, the mixtures were transferred to the human VEGF₁₆₅ immobilized plate and incubated for 90 min. […] Optical density at 450 nm (OD 450 nm) was measured using a Sunrise microplate reader (Tecan). Data were analyzed as above, and EC₅₀ values were calculated from the dose-response curves of the scFvs.
Target sequence in this assay (P15692 other isoform, or with tags, fused parts or gaps): as the sequence (P15692 other isoform, or with tags, fused parts or gaps) above

For experiment [10], the target named is recombinant murine VEGF164 (mouse) (UniProt Q00731). In words: Biacore SPR, VEGF immobilized, pH 5.
Experiment [11] has as its target recombinant rat VEGF164 (rat) (UniProt P16612). In words: Biacore SPR, VEGF immobilized, pH 5.

B1: 511-min (scFv)
scFv: EIVMTQSPSTLSASVGDRVIITCQASQSINIWCSWYQQKPGKAPKLLIYRASTLASGVPSRFSGSGSGAEFTLTISSLQPDDFATYYCQANYAYSAGYGAAFGQGTKLTVLGGGGGSGGGGSGGGGSGGGGSEVQLVESGGGLVQPGGSLRLSCAASGFSLNTYYMNWVRQAPGKGLEWVSIIAPDDTTYYASWAKSRFTISRDNSKNTLYLQMNSLRAEDTAVYYCAKSGDTTAWGADIWGQGTLVTVSS
notes: VL and VH tied by name; also called Protein Nr
For B1, the binding result in the experiment with recombinant human PLGF is listed as “no binding”. In [1], the “Rel. activity in HUVEC assay (EC50Luc[nM]/EC50test[nM]) hVEGF” value was determined as 0.0011. Also, the koff came out at 0.00128 s⁻¹ in experiment [2]; 0.00128 s⁻¹ in experiment [3]; 0.000885 s⁻¹ in experiment [5]; 0.000898 s⁻¹ in experiment [6]; 0.00128 s⁻¹ in experiment [7]; 0.000963 s⁻¹ in [8]. The figures for the koff in experiment [10] and in [11] were 0.00103 s⁻¹ and 0.00112 s⁻¹, respectively. For the same molecule, the kon in [2] was 505000 M⁻¹ s⁻¹; in experiment [3], 505000 M⁻¹ s⁻¹; in [5], 675000 M⁻¹ s⁻¹; in experiment [6] it was 619000 M⁻¹ s⁻¹; in experiment [7] it was 505000 M⁻¹ s⁻¹; in experiment [8], 778000 M⁻¹ s⁻¹. Moreover, the kon in experiment [10] came out at 625000 M⁻¹ s⁻¹; in [11], 550000 M⁻¹ s⁻¹. For the same molecule, in experiment [4], the “Rel. activity in HUVEC assay (EC50Luc[nM]/EC50test[nM])” value amounted to 0.0011. The “Rel. activity hVEGR1 comp. ELISA (EC50Luc[nM]/EC50test[nM])” value (shortened to “Rel. activity hVEGR1 comp. ELISA”) in experiment [9] is 0.7.

B2: 509-max (scFv)
scFv: EIVMTQSPSTLSASVGDRVIITCQASQNIRIWLSWYQQKPGKAPKLLIYKASTLESGVPSRFSGSGSGTEFTLTISSLQPDDFATYYCQNNAHYSTNGGTFGQGTKLTVLGGGGGSGGGGSGGGGSGGGGSEVQLVESGGGLVQPGGSLRLSCTASGFSLSSYYMCWVRQAPGKGLEWVGCLDYVGDTDYASWAKGRFTISKDASKNTVYLQMNSLRAEDTAVYYCARTDDSRGWGLNIWGQGTLVTVSS
notes: VL and VH tied by name; also called Protein Nr; 855
Take B2: the binding result with recombinant human PLGF is “no binding”. Further, the koff in [2] is 0.00272 s⁻¹; in experiment [5], 0.000537 s⁻¹; in experiment [6] it was 0.000235 s⁻¹; in experiment [7] it was 0.00272 s⁻¹; in experiment [8], 0.000249 s⁻¹; in experiment [10], 0.0059 s⁻¹. Further, in experiment [11], the koff was found to be 0.00645 s⁻¹. For the same molecule, the association rate constant (kon) in experiment [2] came out at 2.26e+06 M⁻¹ s⁻¹; in experiment [5], 1.42e+06 M⁻¹ s⁻¹; in [6] it was 648000 M⁻¹ s⁻¹; in experiment [7], 2.26e+06 M⁻¹ s⁻¹; in experiment [8], 742000 M⁻¹ s⁻¹; in experiment [10], 4.09e+06 M⁻¹ s⁻¹. For the same molecule, the kon in experiment [11] was 3.9e+06 M⁻¹ s⁻¹. Also, the “Rel. activity in HUVEC assay (EC50Luc[nM]/EC50test[nM])” value in experiment [4] came out at 0.003. In addition, in experiment [9], the “Rel. activity hVEGR1 comp. ELISA” value was 13.

B3: 509-maxII (scFv)
scFv: EIVMTQSPSTLSASVGDRVIITCQASQNIRIWLSWYQQKPGKAPKLLIYKASTLESGVPSRFSGSGSGTEFTLTISSLQPDDFATYYCQNNAHYSTNGGTFGQGTKLTVLGGGGGSGGGGSGGGGSGGGGSEVQLVESGGGLVQPGGSLRLSCTASGFSLSSYYMSWVRQAPGKGLEWVGILDYVGDTDYASWAKGRFTISKDASKNTVYLQMNSLRAEDTAVYYCARTDDSRGWGLNIWGQGTLVTVSS
notes: VH tied by name; also called Protein Nr
With B3, in the experiment with recombinant human PLGF, the binding result is “no binding”. In addition, the koff in [2] turned out to be 0.00282 s⁻¹; in experiment [5], 0.0198 s⁻¹; in experiment [6], 0.00133 s⁻¹; in experiment [7] it was 0.00282 s⁻¹; in experiment [8], 0.00123 s⁻¹; in [10], 0.0601 s⁻¹. Moreover, in experiment [11], the koff came to 0.0266 s⁻¹. Further, the on-rate constant (kon) in experiment [2] came to 838000 M⁻¹ s⁻¹; in [5], 7.59e+06 M⁻¹ s⁻¹; in experiment [6], 901000 M⁻¹ s⁻¹; in experiment [7], 838000 M⁻¹ s⁻¹; in [8], 897000 M⁻¹ s⁻¹; in [10] it was 3.47e+07 M⁻¹ s⁻¹. Further, in experiment [11], the kon came out at 1.47e+07 M⁻¹ s⁻¹. The “Rel. activity in HUVEC assay (EC50Luc[nM]/EC50test[nM])” value in experiment [4] was found to be 0.0009. Further, the “Rel. activity hVEGR1 comp. ELISA” value in experiment [9] is 0.09.

B4: 509-min (scFv)
scFv: EIVMTQSPSTLSASVGDRVIITCQASQNIRIWLSWYQQKPGKAPKLLIYKASTLESGVPSRFSGSGSGAEFTLTISSLQPDDFATYYCQNNAHYSTNGGTFGQGTKLTVLGGGGGSGGGGSGGGGSGGGGSEVQLVESGGGLVQPGGSLRLSCAASGFSLSSYYMCWVRQAPGKGLEWVSCLDYVGDTDYASWAKGRFTISRDNSKNTLYLQMNSLRAEDTAVYYCAKTDDSRGWGLNIWGQGTLVTVSS
notes: VL and VH tied by name; also called Protein Nr; 854
Take B4: the binding result with recombinant human PLGF is given as “no binding”. Besides, the koff in [2] is 0.00114 s⁻¹; in [5], 0.0108 s⁻¹; in experiment [6] it was 0.000474 s⁻¹; in [7] it was 0.00114 s⁻¹; in experiment [8], 0.000453 s⁻¹; in experiment [10], 0.001 s⁻¹. Also, in experiment [11], the koff was 0.000844 s⁻¹. The kon in experiment [2] amounted to 623000 M⁻¹ s⁻¹; in experiment [5], 3.52e+06 M⁻¹ s⁻¹; in experiment [6] it was 287000 M⁻¹ s⁻¹; in experiment [7], 623000 M⁻¹ s⁻¹; in experiment [8], 354000 M⁻¹ s⁻¹; in experiment [10] it was 614000 M⁻¹ s⁻¹. Moreover, the kon in [11] was determined as 351000 M⁻¹ s⁻¹. Besides, the “Rel. activity hVEGR1 comp. ELISA” value in experiment [9] was found to be 2.9.

B5: 435-max (scFv)
scFv: EIVMTQSPSTLSASVGDRVIITCQASQSIGSSLAWYQQKPGKAPKLLIYTAANLASGVPSRFSGSRSGAEFTLTISSLQPDDFATYYCQNFATSDTVTFGQGTKLTVLGGGGGSGGGGSGGGGSGGGGSEVQLVESGGGLVQPGGSLRLSCKASGFSLNTNYWMCWVRQAPGKGLEWVGCMYTGSYNRAYYASWAKGRFTSSKDTSKNTVYLQMNSLRAEDTAVYYCAKGSNWYSDLWGQGTLVTVSS
notes: the scFv entry is used; also called Protein Nr; 945
Consider B5, for which the koff in [2] is 0.000755 s⁻¹; in [5], 0.000104 s⁻¹. Moreover, the on-rate constant (kon) in experiment [2] was determined as 167000 M⁻¹ s⁻¹; in [5] it was 1.13e+06 M⁻¹ s⁻¹. Moreover, the “Rel. activity hVEGR1 comp. ELISA” value in experiment [9] is 0.00039.
